Data taken from patent publication US20240293512A1 (HANMI PHARM, published 2024).
Bridge positions count the residues as written; N and C are the ends. Square brackets hold non-standard residues; d marks the D form. Ends that are not written are not given here. * marks the point of attachment. Acetyl(2-(4-imidazolyl)) = O=C(Cc1c[nH]cn1)*; Aib = CC(C)(N)C(=O)O

T1: human GIP receptor (human, UniProt P48546 22-466)
T1 sequence (looked up): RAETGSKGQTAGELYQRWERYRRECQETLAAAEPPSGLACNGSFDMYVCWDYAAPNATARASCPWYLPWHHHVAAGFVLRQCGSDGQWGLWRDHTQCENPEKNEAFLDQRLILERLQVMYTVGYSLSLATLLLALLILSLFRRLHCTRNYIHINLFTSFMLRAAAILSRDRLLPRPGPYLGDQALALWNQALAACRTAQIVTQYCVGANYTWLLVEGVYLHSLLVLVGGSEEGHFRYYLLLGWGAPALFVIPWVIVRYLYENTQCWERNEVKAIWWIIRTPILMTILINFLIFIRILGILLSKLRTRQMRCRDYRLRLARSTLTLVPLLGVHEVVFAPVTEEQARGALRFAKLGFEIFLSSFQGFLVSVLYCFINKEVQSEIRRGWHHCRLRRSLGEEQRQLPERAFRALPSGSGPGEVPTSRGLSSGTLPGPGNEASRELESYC


Experiments:
Assay in all cases: cell-based or functional assay
[1] = biological target: human GLP-1 receptor (human, UniProt P43220 24-463)
[2] = biological target: T1, human GIP receptor
[3] = biological target: human GCG receptor (human, UniProt P47871 26-477)
Sequence of human GCG receptor (P47871 26-477): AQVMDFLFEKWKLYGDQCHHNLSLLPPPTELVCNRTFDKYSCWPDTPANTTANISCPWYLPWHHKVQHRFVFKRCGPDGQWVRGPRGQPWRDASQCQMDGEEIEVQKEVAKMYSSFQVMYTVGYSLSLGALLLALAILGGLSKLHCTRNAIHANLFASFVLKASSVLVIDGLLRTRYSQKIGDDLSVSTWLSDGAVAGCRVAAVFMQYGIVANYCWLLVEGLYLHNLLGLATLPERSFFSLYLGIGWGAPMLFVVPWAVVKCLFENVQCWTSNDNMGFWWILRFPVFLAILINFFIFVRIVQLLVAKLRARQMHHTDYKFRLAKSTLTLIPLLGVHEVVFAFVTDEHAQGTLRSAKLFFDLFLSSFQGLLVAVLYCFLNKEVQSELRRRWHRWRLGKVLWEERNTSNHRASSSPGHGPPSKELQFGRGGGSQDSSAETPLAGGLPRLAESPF

Binder	In vitro activity compared with native peptide (%) vs GLP-1 (cAMP EC50) [1] [%]	In vitro activity compared with native peptide (%) vs GIP (cAMP EC50) [2] [%]	In vitro activity compared with native peptide (%) vs Glucagon (cAMP EC50) [3] [%]
Y[Aib]QGTFTSDYSKCLDEKRAKEFVQWLLDHHPSSGQPPPS (bridge 16-20) [triple agonist of SEQ ID NO: 22]	20.1	59.7	140
Y[Aib]QGTFTSDYSKALDEKAAKDFVNWLLDQHPSSGQPPPSC (bridge 16-20) [triple agonist of SEQ ID NO: 102]	23.3	58	29.5
[Acetyl(2-(4-imidazolyl))]GQGTFTSDYSIQLDEIAVRDFVEWLKNGGPSSGAPPPSHG [triple agonist of SEQ ID NO: 14]	28	< 0.1	< 0.1
H[Aib]QGTFTSDCSKYLDERAAQDFVQWLLDGGPSSGAPPPS [triple agonist of SEQ ID NO: 25]	82.6	< 0.1	0.1
H[Aib]QGTFTSDVSSYLDGQAQKEFIAWLVKGC [triple agonist of SEQ ID NO: 2]	5.9	< 0.1	< 0.1
[Acetyl(2-(4-imidazolyl))]GEGTFTSDLSKYLDSRRQQLFVQWLKAGGPSSGAPPPSHG [triple agonist of SEQ ID NO: 11]	1.4	< 0.1	< 0.1
Y[Aib]QGTFTSDYSKYLDEKRAKEFVQWLLCHHPSSGQPPPS (bridge 16-20) [triple agonist of SEQ ID NO: 95]	2.1	< 0.1	0.4
[Acetyl(2-(4-imidazolyl))]GQGTFTSDLSIQYEEEAQQDFVEWLKDTGPSSGAPPPSHG [triple agonist of SEQ ID NO: 20]	< 0.1	< 0.1	< 0.1
[Acetyl(2-(4-imidazolyl))]GEGTFISDYSIQLDEIAVQDFVEWLLAQKPSSGAPPPSHG [triple agonist of SEQ ID NO: 13]	< 0.1	< 0.1	< 0.1
H[Aib]QGTFTSDCSKYLDSRAAQDFVQWLLDGGPSSGAPPPS [triple agonist of SEQ ID NO: 26]	64.5	< 0.1	0.2
Y[Aib]QGTFTSDYSKALDEKAAKEFVNWLLDHHPSSGQPPPSC (bridge 16-20) [triple agonist of SEQ ID NO: 98]	28.1	47.1	8.2
Y[Aib]QGTFTSDYSKYLDECRAKEFVQWLLAQKGKKNDWKHNIT (bridge 16-20) [triple agonist of SEQ ID NO: 23]	4.01	< 0.1	9.3
Y[Aib]QGTFTSDYSKYLDECRAKEFVQWLKNGGPSSGAPPPS (bridge 16-20) [triple agonist of SEQ ID NO: 24]	41.2	< 0.1	9.3
Y[Aib]QGTFTSDYSKALDEKAAKDFVNWLLDHHPSSGQPPPSC (bridge 16-20) [triple agonist of SEQ ID NO: 99]	20.9	57.7	14.9
[Acetyl(2-(4-imidazolyl))]GQGTFTSDLSKQMDSERAREFIEWLKNTGPSSGAPPPSHG [triple agonist of SEQ ID NO: 18]	< 0.1	< 0.1	< 0.1
[Acetyl(2-(4-imidazolyl))]GQGTFTSDLSKQMDSEAQQLFIEWLKNGGPSSGAPPPSHG [triple agonist of SEQ ID NO: 16]	2.1	< 0.1	< 0.1
Y[Aib]QGTFTSDYSKYLDECRAKEFVQWLLDHHPSSGQPPPS (bridge 16-20) [triple agonist of SEQ ID NO: 21]	17.8	22.7	267
Y[Aib]QGTFTSDYSKALDEKAAKEFVQWLLDQHPSSGQPPPSC (bridge 16-20) [triple agonist of SEQ ID NO: 100]	42.2	118	12.7
Y[Aib]QGTFTSDYSKYLDEKRAKEFVQWLLDCHPSSGQPPPS (bridge 16-20) [triple agonist of SEQ ID NO: 97]	10.5	2.6	62.8
[Acetyl(2-(4-imidazolyl))]GQGTFTSDLSIQYDSEHQRDFIEWLKDTGPSSGAPPPSHG [triple agonist of SEQ ID NO: 19]	< 0.1	< 0.1	< 0.1
[Acetyl(2-(4-imidazolyl))]GEGTFISDLSKYMDEQAVQLFVEWLMAGGPSSGAPPPSHG [triple agonist of SEQ ID NO: 12]	0.4	< 0.1	< 0.1
Y[Aib]QGTFTSDYSKALDEKAAKEFVNWLLDQHPSSGQPPPSC (bridge 16-20) [triple agonist of SEQ ID NO: 101]	23.2	40.1	13.9
Y[Aib]QGTFTSDYSKYLDEKRAKEFVQWLLDHCPSSGQPPPS (bridge 16-20) [triple agonist of SEQ ID NO: 96]	34.4	5.2	195
[Acetyl(2-(4-imidazolyl))]GQGTFTSDLSKQMDEERAREFIEWLLAQKPSSGAPPPSHG [triple agonist of SEQ ID NO: 17]	0.2	< 0.1	< 0.1
H[Aib]QGTFTSDVSSYLLGQAAKQFIAWLVKGGGPSSGAPPPSC [triple agonist of SEQ ID NO: 3]	1.8	< 0.1	< 0.1
